Reference: publication PMC10456876
Read-outs that look alike come from different tables or passages of the source.

Columns and labels:
[1] = target: human telomeric nucleosome core particle (teloNCP) (human) (UniProt P68431); assay: cryo-EM structure; TRF1core-teloNCP complex from the glycerol gradient, cross-linked with 0.5 mM BS3; 2:1 complex at 2.7 Å, 4:1 complex at 6.7 Å (rigid-body docking)
[2] = target: human telomeric nucleosome core particle (teloNCP) (human) (UniProt P68431); assay: as above; remark: listed apart in the source
[3] = target: human telomeric nucleosome core particle (teloNCP), P68431;P62805;P04908;P06899; assay: EMSA; conditions: point at 200 nM TRF1core; triplicate; parent: est. 100; read off a plot

wild-type MBP-tagged TRF1core (TRF1-TIN2-TPP1), sequence (Q9BSI4 whole entry, looked up): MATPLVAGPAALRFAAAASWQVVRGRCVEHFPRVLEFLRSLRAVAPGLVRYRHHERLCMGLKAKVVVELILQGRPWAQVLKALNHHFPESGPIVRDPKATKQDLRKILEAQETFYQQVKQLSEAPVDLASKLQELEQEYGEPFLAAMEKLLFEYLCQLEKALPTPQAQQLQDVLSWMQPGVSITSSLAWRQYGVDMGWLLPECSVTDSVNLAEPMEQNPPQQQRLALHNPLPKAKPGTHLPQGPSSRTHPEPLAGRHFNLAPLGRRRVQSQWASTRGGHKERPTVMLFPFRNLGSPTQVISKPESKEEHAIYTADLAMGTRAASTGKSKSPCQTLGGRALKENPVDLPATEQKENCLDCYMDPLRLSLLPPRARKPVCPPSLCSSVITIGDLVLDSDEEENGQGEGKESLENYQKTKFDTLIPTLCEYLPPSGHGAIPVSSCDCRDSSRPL
wild-type MBP-tagged TRF1core (TRF1-TIN2-TPP1), sequence (P54274 whole entry, looked up, stated change not applied): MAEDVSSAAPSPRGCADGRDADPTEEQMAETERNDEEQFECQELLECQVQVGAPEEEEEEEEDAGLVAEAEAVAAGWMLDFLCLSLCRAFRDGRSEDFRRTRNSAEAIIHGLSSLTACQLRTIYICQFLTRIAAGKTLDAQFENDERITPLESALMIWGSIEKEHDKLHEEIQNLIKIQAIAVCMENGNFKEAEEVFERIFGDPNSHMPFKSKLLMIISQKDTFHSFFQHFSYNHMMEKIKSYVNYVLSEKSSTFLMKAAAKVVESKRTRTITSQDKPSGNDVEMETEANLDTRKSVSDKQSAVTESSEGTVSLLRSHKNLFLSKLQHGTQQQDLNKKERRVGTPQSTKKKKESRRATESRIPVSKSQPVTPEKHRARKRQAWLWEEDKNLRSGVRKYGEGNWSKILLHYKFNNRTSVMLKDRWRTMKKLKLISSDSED

Q: For “shelterin TRF1-TIN2-TPP1 subcomplex (TRF1core), untagged (from UniProt P54274 1-439; Q9BSI4 1-451)”, which TRF1 Myb domains bound per teloNCP [1] is on record?
A: 2

Q: And the TRF1 Myb domains bound per teloNCP [2]?
A: 4

Q: For “wild-type MBP-tagged TRF1core (TRF1-TIN2-TPP1) (from UniProt P54274;Q9BSI4) S434A; S435A; S437A”, which response [3] is on record?
A: 17 % Bound
